Test results as given in IntAct's records for PubMed 25114243.

B1: Ras-related protein Rab-5C (Homo sapiens), P51148 (parent)
chain: MAGRGGAARPNGPAAGNKICQFKLVLLGESAVGKSSLVLRFVKGQFHEYQESTIGAAFLTQTVCLDDTTVKFEIWDTAGQERYHSLAPMYYRGAQAAIVVYDITNTDTFARAKNWVKELQRQASPNIVIALAGNKADLASKRAVEFQEAQAYADDNSLLFMETSAKTAMNVNEIFMAIAKKLPKNEPQNATGAPGRNRGVDLQENNPASRSQCCSN
partner: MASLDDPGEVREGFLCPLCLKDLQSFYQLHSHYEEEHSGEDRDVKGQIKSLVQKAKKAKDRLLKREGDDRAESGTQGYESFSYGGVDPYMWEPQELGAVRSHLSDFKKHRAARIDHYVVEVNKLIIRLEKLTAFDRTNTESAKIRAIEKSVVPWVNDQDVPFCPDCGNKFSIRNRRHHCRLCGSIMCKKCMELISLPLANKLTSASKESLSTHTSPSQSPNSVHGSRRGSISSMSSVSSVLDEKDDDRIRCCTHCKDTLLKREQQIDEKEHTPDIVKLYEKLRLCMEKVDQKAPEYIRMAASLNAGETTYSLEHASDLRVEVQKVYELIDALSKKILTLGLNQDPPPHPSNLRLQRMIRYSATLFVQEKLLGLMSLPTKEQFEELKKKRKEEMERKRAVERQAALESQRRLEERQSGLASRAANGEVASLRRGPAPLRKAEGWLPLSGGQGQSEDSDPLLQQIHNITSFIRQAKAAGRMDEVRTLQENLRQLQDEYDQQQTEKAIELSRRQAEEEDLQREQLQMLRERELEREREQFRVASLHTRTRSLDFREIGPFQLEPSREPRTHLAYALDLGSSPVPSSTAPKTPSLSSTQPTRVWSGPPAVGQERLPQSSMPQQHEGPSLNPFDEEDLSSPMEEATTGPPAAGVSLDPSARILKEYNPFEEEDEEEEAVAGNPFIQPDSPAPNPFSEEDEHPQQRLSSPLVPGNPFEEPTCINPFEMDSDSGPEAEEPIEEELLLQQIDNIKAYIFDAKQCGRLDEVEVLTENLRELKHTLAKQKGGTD
B2: Ras-related protein Rab-5C (Homo sapiens), P51148 (parent)
chain: B1 chain
B3: Ras-related protein Rab-5C (Homo sapiens), P51148 (parent)
chain: B1 chain
partner: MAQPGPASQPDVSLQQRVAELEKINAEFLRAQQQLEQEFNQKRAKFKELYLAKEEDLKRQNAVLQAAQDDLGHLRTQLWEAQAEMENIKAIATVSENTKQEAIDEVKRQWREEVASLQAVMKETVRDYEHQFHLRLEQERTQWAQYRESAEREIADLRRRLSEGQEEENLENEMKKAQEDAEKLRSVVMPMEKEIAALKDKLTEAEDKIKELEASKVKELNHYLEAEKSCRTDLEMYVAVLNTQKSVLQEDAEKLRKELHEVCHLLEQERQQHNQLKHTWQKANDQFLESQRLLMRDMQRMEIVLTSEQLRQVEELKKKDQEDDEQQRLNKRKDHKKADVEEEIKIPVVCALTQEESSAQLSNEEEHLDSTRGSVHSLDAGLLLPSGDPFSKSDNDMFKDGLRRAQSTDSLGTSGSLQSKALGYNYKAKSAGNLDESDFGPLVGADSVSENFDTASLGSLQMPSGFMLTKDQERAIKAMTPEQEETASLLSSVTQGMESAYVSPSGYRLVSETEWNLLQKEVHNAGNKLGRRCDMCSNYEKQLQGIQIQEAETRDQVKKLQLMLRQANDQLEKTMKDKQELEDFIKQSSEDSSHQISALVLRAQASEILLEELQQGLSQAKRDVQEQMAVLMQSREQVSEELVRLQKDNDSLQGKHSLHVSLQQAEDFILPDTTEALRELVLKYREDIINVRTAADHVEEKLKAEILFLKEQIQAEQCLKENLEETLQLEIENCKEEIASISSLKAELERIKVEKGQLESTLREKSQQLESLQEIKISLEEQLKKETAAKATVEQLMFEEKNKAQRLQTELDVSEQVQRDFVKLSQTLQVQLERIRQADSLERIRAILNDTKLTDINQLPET

Variants of: B1
Conditions: with rbns5_human RBSN

| Variant | effect of a mutation on the interaction |
| --- | --- |
| R92A | decreasing interaction |

Variants of: B2
Conditions: with eea1_human EEA1, Q15075
eea1_human EEA1, Q15075, sequence (Q15075 whole entry): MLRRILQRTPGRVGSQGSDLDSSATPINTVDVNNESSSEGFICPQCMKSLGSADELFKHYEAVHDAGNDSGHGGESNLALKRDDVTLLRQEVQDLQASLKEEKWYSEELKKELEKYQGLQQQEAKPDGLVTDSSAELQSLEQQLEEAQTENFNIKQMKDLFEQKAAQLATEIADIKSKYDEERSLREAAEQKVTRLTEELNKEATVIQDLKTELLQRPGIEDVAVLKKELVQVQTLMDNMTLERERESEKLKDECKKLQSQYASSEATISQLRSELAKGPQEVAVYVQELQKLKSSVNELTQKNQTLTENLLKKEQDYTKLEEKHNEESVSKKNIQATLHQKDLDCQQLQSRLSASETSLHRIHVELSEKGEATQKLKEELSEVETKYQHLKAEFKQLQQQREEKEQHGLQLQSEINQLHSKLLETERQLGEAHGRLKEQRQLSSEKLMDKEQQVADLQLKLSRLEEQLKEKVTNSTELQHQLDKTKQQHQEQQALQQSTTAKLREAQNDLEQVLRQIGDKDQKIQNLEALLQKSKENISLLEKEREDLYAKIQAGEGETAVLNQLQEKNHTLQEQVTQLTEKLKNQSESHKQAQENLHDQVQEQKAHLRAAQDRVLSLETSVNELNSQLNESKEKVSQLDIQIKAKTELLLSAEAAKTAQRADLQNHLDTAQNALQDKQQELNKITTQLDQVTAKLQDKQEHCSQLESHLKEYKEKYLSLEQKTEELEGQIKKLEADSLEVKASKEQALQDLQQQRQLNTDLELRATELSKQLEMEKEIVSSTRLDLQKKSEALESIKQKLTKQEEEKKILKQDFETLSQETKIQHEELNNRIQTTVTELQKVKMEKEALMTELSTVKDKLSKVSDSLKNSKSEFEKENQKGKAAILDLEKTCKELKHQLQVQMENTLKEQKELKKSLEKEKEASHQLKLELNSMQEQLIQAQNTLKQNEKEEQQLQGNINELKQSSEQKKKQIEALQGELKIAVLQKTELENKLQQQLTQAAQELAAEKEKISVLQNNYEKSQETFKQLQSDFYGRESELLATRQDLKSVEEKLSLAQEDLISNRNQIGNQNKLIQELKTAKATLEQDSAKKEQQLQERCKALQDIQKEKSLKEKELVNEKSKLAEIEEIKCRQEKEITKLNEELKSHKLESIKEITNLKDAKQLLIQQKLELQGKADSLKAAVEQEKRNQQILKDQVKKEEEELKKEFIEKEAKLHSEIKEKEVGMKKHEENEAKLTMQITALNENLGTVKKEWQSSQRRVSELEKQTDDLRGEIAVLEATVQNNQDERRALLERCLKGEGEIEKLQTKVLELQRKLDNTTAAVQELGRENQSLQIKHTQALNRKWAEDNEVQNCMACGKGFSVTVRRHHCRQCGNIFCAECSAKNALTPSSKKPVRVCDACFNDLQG

| Variant | effect of a mutation on the interaction |
| --- | --- |
| R92A | decreasing interaction |

Variants of: B3
Conditions: with rabe1_human RABEP1, Q15276

| Variant | effect of a mutation on the interaction |
| --- | --- |
| R92A | with no effect |
